Data: the supplement of paper PMC10899765

Columns and labels:
Details in all cases: 20 nM; 72 h
MCF10A [1] = experiment: percent viability (nuclei count relative to siNT); higher = more viable cells
Method: (§1)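 After 72 h, cells were fixed and stained with Hoechst and anti-fibrillarin, and nucleoli per nucleus were counted with CellProfiler. Values are plate-adjusted percent effect for the one-nucleolus and 5+ nucleoli phenotypes, normalised to siNT (0%) and to the positive controls siNOL11 or siKIF11 (100%), as the mean of biological triplicates. Percent viability is the nuclei count relative to siNT.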

MCF10A [2] = experiment: 5+ nucleoli phenotype percent effect (relative to siNT 0% and siKIF11 100%); higher = more cells with five or more nucleoli
Method: as §1

MCF10A [3] = experiment: one-nucleolus phenotype percent effect (relative to siNT 0% and siNOL11 100%); higher = more cells with one nucleolus (ribosome biogenesis inhibition)
Method: as §1

Sequence	percent viability (MCF10A [1]) [%]	5+ nucleoli phenotype percent effect (MCF10A [2]) [%]	one-nucleolus phenotype percent effect (MCF10A [3]) [%]
ACGUUGGCUCUGGUGGUG [hsa-miR-1306-3p]	18.4	-4.59	38.2
ACGUUUGAAUGCUGUACAAGGC [hsa-miR-5707]	185	56.2	-26.7
ACUAAAGGAUAUAGAAGGUUUU [hsa-miR-4509]	103	5.5	-25.3
ACUCAAAACCCUUCAGUGACUU [hsa-miR-616-5p]	93.6	21.5	-11.3
ACUCAAAAGAUGGCGGCACUUU [hsa-miR-371b-5p]	96.1	19.5	-20.5
ACUCAAAAUGGGGGCGCUUUCC [hsa-miR-373-5p]	83.7	34.3	-11.8
ACUCAAACUGUGGGGGCACU [hsa-miR-371a-5p]	79.6	15.8	3.21
ACUCAGUCAUGGUCAUU [hsa-miR-4264]	95.1	26.3	-7.28
ACUCAUUCUCCUCUGUCCAG [hsa-miR-6758-3p]	147	81.4	-26.2
ACUCCAAGAAGAAUCUAGACAG [hsa-miR-5695]	183	39.3	-26.7
ACUCCAGCCCCACAGCCUCAGC [hsa-miR-766-3p]	39	-19.8	15.5
ACUCCAGUUUUAGUUCUCUUG [hsa-miR-3925-3p]	63.4	38	-22.1
ACUCCAUUUGUUUUGAUGAUGGA [hsa-miR-136-5p]	107	34.2	-13
ACUCGCAUCCUUCCCUUGGCAG [hsa-miR-6814-3p]	118	32.1	-25.3
ACUCGGCUGCGGUGGACAAGU [hsa-miR-4638-5p]	39.5	-4.89	3.97
ACUCUAGCUGCCAAAGGCGCU [hsa-miR-1251]	80.4	11.2	-4.32
ACUCUUUCCCUGUUGCACUAC [hsa-miR-130b-5p]	54.3	16.1	-13.5
ACUGAAUCCUCUUUUCCUCAG [hsa-miR-5187-3p]	67.9	0.116	-12.2
ACUGACAGGAGAGCAUUUUGA [hsa-miR-3660]	55	21.1	-1.95
ACUGAGCCUCUCUCUCUCCAG [hsa-miR-6751-3p]	65.4	-22.5	-10.3
ACUGAUUAUCUUAACUCUCUGA [hsa-miR-3920]	82	38.1	-37.8
ACUGAUUUCUUUUGGUGUUCAG [hsa-miR-29a-5p]	134	23.5	-23.9
ACUGCAGUGAAGGCACUUGUAG [hsa-miR-17-3p]	70.9	12.2	-6.73
ACUGCAUUAUGAGCACUUAAAG [hsa-miR-20a-3p]	138	43.3	-23.3
